Results taken from publication PMC5934816, “Towards development of aptamers that specifically bind to lactate dehydrogenase of Plasmodium falciparum through epitopic targeting”.

B1: C7 concatemer control (ssDNA)
DNA: ACTTTGCACATGCTTATTCTTGTCTCCCATGCCTGTTGTGAGCCTCCTAAC
B2: pL1 (ssDNA)
DNA: GTTCGATTGGATTGTGCCGGAAGTGCTGGCTCGAAC

Tests used:
[1] = biological target: rPvLDH, lactate dehydrogenase (Plasmodium vivax, UniProt Q4PRK9 1-316); test: ELONA; conditions: protein: recombinant; chain copies: 4
[2] = biological target: rPfLDH, lactate dehydrogenase (Plasmodium falciparum, UniProt Q71T02 1-316); test: ELONA; ELONA: 500 ng immobilized protein; aptamer in HMCKN (2 mM HEPES, 0.2 mM MgCl2, 0.2 mM CaCl2, 0.2 mM KCl, 15 mM NaCl, pH 7.4), 2 h, room temperature; washes HMCKN then 25 mM TBS pH 7.6, 0.1% NP-40; conditions: protein: recombinant; chain copies: 4; label: 5'-biotin

Binder | binding result [1] | binding result [2] | Kd [1]
B1 | no binding | no binding | 
B2 |  |  | 79.2 ± 12.7 nM
